B1: NEUROD6 (parent)
chain: YHSPELTTPPGHGTLDNSKSMKPY

Variants of: B1
Assay: protein stability index of a GFP-peptide fusion (GPS, HEK-293T) (PSI 1-6); higher = more stable
Details: c terminus: a fixed tail appended
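Further: lentivirally expressed fusions sorted by FACS into six bins by GFP to DsRed ratio, PSI derived from sequencing read proportions per bin multiplied by bin number.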

Protein stability index, by site and new letter:
M21: C 2.42, R 2.23, Y 1.54, D 2.39, K 2.36, F 2.18, T 2.67, G 2.71, Q 2.32, L 2.44, H 2.56, V 2.42, S 2.18, N 2.82, I 2.84, A 2.16, P 2.62, W 2.14, E 2.35
G13: F 2.18, D 2.46, Q 2.11, L 2.14, I 2.06, N 2.47, W 1.76, S 2.19, M 2.13, K 2.35, Y 2.07, E 2.67, V 2.05, R 1.76, C 1.99, H 2.48, A 2.28, T 2.41
N17: S 2.3, W 2.51, L 1.72, A 2.51, Y 1.88, F 2.14, K 2.14, P 2.15, R 2.01, Q 2.52, M 1.55, V 2.15, I 2.23, C 1.69, T 2.15, H 1.99, E 2.68, G 2.68, D 2.21
L6: I 2.63, N 3.25, Q 3.32, G 3.05, W 2.97, Y 1.5, R 4.02, S 3.13, D 4.05, K 4.08, E 3.86, T 3.28, H 3.28, F 2.85, V 2.39, M 2.33
P10: K 2.13, Q 2.02, D 2.74, M 1.88, N 1.97, E 2.42, W 3.84, H 2.17, T 1.7, V 2.33, G 1.78, Y 1.96, C 1.9, I 1.67, F 2.03, R 2.3, L 2.13, A 1.81, S 1.75
K19: T 2.35, W 1.5, V 2.39, P 2.22, C 2.05, E 2.59, R 1.92, M 2.37, F 1.85, L 1.96, G 2.21, N 2.44, S 2.17, A 2.3, H 2.07, D 2.85, I 2.33, Q 2.24, Y 1.9
G11: A 2.34, C 2.06, Y 2.07, V 1.96, E 2.67, K 2.5, S 2.17, H 1.99, Q 2.28, N 2.39, W 1.98, L 2.31, I 2.21, M 2.48, R 2.29, D 2.69, F 1.73, T 2.08
S20: T 2.87, D 2.28, N 2.33, R 1.4, H 1.87, V 1.92, I 1.7, G 2.28, A 2.04, E 2.54, C 1.86, Q 2.48, Y 2.23, K 1.94, F 1.9, M 2.43, W 1.97, L 1.79, P 2.3
T7: D 3.48, N 2.84, G 2.97, P 3.56, R 3.58, L 2.3, V 2.49, Y 2.55, E 4.01, S 1.96, A 1.72, Q 2.39, F 2.12, I 2.19, W 3.05, M 3.75, C 1.98, K 2.69, H 1.86
P23: K 2.33, G 2.23, L 2.44, F 2.33, R 1.99, C 1.87, Q 2.08, W 2.67, H 2.24, T 1.77, Y 1.77, V 2.18, I 1.69, M 1.98, E 2.41, A 2.36, D 2.28, S 1.9, N 2.36
P9: Y 1.66, S 2.22, C 2.18, H 3.09, K 2.45, M 1.8, F 1.63, D 2.78, E 2.58, A 2.04, G 2.03, T 2.32, R 2.29, Q 2.22, W 1.94, L 2.64, V 1.95, I 2.35, N 2.24
T8: L 2.1, C 2.01, E 3.34, V 2.04, Y 2.11, F 2.43, M 1.92, G 2.47, K 2.37, R 2.35, A 2.17, Q 2.52, D 3.14, H 2.15, I 2.12, N 2.52, S 2, W 1.84
L15: T 3.01, M 1.9, F 1.77, C 2.1, Q 2.77, V 2.26, G 2.24, I 2.17, E 2.12, Y 2.27, R 2, W 1.82, H 2.36, K 2.2, N 2.46, S 2.35, A 2.17, D 2.69
K22: A 2.56, R 2.47, M 2.15, E 2.46, D 2.55, T 2.32, Y 1.83, I 2.41, C 1.81, G 1.75, L 2.2, W 2.32, V 2.06, N 2.14, S 2.26, P 1.82, Q 2.15, F 2.25, H 1.87
H12: W 1.43, M 2.56, N 2.49, T 2.53, F 1.97, C 2.25, L 2.29, D 2.56, E 2.24, P 2.25, V 2.16, R 2.25, Q 2.21, Y 1.71, S 1.96, A 2.16, G 2.48, K 2.18, I 2.01
S18: P 2.17, A 2.09, C 1.81, I 1.95, Y 1.94, R 2, M 1.76, E 2.16, D 2.06, G 2.39, K 2.43, F 1.81, H 2.04, W 1.8, Q 2.22, T 2, L 1.74, N 2.54, V 2.38
T14: M 2.33, I 1.9, G 1.87, Q 1.6, R 2.07, C 1.9, Y 1.77, A 2.44, V 1.79, D 2.27, E 2.51, K 2.07, N 3.02, S 2.25, F 2.07, H 2.24, L 1.86, W 2.37
D16: W 2.19, P 2.74, K 1.86, F 1.75, H 2.46, T 2.05, L 1.98, Y 2.05, N 2.27, A 1.65, E 2.32, G 1.56, S 2.26, I 1.81, C 2.66, R 1.63, Q 2.59, M 2.45, V 2.18

Source: the supplement of paper PMC10567573
